Drawing on PMC2760748, this text covers binding signal (% protection of DBS binding) for one substance.

The test system of data set [1] is His-p53. Kind of data set: DNA-protein ELISA. Conditions: EMSA: 100 ng p53 (or 5 ug KB nuclear extract), 3 ng probe, 30 min at RT, 4% native PAGE with 0.5x TBE, buffer per ref [25]; ELISA: p53 in PBS on PAb421, 0.5 ug …. On the technique in general: A gel shift assay detects complexes by their altered migration in electrophoresis.
In data set [2] the test system is GST-p53. Kind of data set: DNA-protein ELISA. As to conditions: EMSA: 100 ng p53 (or 5 ug KB nuclear extract), 3 ng probe, 30 min at RT, 4% native PAGE with 0.5x TBE, buffer per ref [25]; ELISA: p53 in PBS on PAb421, 0.5 ug ….

On to biotin-p21-5'-DBS, for which the binding signal (% protection of DBS binding) in data set [1] and in data set [2] was 60 throughout.
